Like-named read-outs stand apart in the source and are kept apart here.
Assays:
Experiment in all cases: EMSA
Aca11 [1] = target: T1, Aca11 (Streptococcus sp. F0441)
T1 chain: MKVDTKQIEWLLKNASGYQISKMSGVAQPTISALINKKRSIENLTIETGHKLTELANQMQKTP

[2] = target: T2, AcrIIA32 (Acr-Aca13 fusion) (Streptococcus uberis NZ01)
T2 chain: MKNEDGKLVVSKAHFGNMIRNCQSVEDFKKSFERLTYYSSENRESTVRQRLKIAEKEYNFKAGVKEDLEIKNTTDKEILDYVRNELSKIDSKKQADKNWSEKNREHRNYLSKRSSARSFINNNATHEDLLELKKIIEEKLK

A32CTD (Aca13) [3] = target: T3, A32CTD (Aca13) (Streptococcus uberis NZ01)
T3 chain: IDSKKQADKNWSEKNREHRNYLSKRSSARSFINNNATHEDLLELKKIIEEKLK

A35-c-Aca13 = target: T4, A35-c-Aca13
T4 chain: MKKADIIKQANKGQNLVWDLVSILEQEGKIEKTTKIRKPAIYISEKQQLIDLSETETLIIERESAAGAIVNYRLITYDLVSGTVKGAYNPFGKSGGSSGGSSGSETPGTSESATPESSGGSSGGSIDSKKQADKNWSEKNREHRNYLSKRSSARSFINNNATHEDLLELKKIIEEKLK

A35-n-Aca13 = target: T5, A35-n-Aca13
T5 chain: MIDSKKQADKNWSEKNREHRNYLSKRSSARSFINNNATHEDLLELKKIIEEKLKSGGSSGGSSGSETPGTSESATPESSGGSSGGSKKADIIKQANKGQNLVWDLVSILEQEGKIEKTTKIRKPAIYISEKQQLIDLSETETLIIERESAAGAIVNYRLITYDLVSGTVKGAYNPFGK

Aca11 [4] = target: T1, Aca11
[5] = target: T2, AcrIIA32 (Acr-Aca13 fusion)
A32CTD (Aca13) [6] = target: T3, A32CTD (Aca13)

B1: Aca11-s1 IR WT probe (dsDNA)
DNA 1: GTGTTGACAGTATATAACAAATGTTATATACTATACTTGTAAGATAAATAAAACAA
DNA 2: TTGTTTTATTTATCTTACAAGTATAGTATATAACATTTGTTATATACTGTCAACAC
binding result (Aca11 [1]): binds

B2: Aca13-s1 WT probe (Aca13 probe) (dsDNA)
DNA 1: AGTTGATAAAAAGTGTTGACTTTTTAACGTACATGTACTATAATATAATCATAAAGAT
DNA 2: ATCTTTATGATTATATTATAGTACATGTACGTTAAAAAGTCAACACTTTTTATCAACT
binding result [2]: binds
binding result (A32CTD (Aca13) [3]): binds
binding result (A35-c-Aca13): binds
binding result (A35-n-Aca13): binds

B3: Aca13-s1 scIR1 probe (dsDNA)
DNA 1: AGTTGATCCCCCTAGTTGACTTTTTAACGTACATGTACTATAATATAATCATAAAGAT
DNA 2: ATCTTTATGATTATATTATAGTACATGTACGTTAAAAAGTCAACTAGGGGGATCAACT
binding result [2]: binds
binding result (A32CTD (Aca13) [3]): binds

B4: Aca11-s1 scIR probe (dsDNA)
DNA 1: GTGTTGACAGGCGCGCCTCAATGTTATATACTATACTTGTAAGATAAATAAAACAA
DNA 2: TTGTTTTATTTATCTTACAAGTATAGTATATAACATTGAGGCGCGCCTGTCAACAC
binding result (Aca11 [4]): no binding

B5: Aca13-s1 scIR2 probe (dsDNA)
DNA 1: AGTTGATAAAAAGTGTTGACTTTTTAACGTACAGAGCTGTGCATATAATCATAAAGAT
DNA 2: ATCTTTATGATTATATGCACAGCTCTGTACGTTAAAAAGTCAACACTTTTTATCAACT
binding result [5]: no binding
binding result (A32CTD (Aca13) [6]): no binding

Reference: PMC12282945
